Assay results: patent US20150307603A1 (MODIQUEST B V, published 2015)
Non-standard residues stand in square brackets, D forms with d. No end group written: not given here. Cit = NC(=O)NCCC[C@H](N)C(=O)O

Experiments:
[1] = target: ribosomal protein L29 [Homo sapiens] (Homo sapiens); assay: IP of deiminated HEK293 lysate + MS emPAI; reference RhmAb2.101
Experimental: (§3) Beads were subjected to three washes with 1 ml IPP500, one wash with 1 ml IPP150 (10 mM Tris/HCl pH 8.0, 150 mM NaCl, 0.1% NP40 and 0.1% TWEEN®-20), and subsequently incubated at room temperature with 300 p1 deiminated HEK293 lysate for 2 hours under constant rotation. Beads were washed three times with 1 ml of IPP150, after which a small part has been used for SDS-PAGE electrophoresis to determine if the IP procedure with the HEK293 cells was successful.
(§4) The exponentially modified protein abundance index (emPAI) was calculated for all validated proteins.

[2] = target: PREDICTED: similar to 60S ribosomal protein L29 (Cell surface heparin-binding protein HIP) [Homo sapiens] (Homo sapiens); assay: as above
Experimental: as §3, §4

[3] = target: T1, huPAD2-deiminated human recombinant histone 2A (human); assay: ELISA, Ab 0.08 ug/well
T1 construct: also called H2A/p2; histone 2A/p2
Source text: (§1) The resulting OD (y-axis) is a measure for antibody binding. H1-recombinant histone 1; H1/p2-huPAD2 recombinant histone 1; H1/p4-huPAD4 recombinant histone 1, and so forth (x-axis).

[4] = target: T2, huPAD2-deiminated human recombinant histone 3 (human); assay: ELISA, Ab 0.08 ug/well
T2 construct: also called H3/p2; histone 3/p2
Source text: as §1

[5] = target: T3, human recombinant histone 4 (human, UniProt P62805 2-103); assay: ELISA, Ab 0.08 ug/well
Source text: as §1

[6] = target: T4, huPAD4-deiminated human recombinant histone 2A (human); assay: ELISA, Ab 0.08 ug/well
T4 construct: also called H2A/p4; histone 2A/p4
Source text: as §1

[7] = target: T5, huPAD2-deiminated human recombinant histone 2B (human); assay: ELISA, Ab 0.08 ug/well
T5 construct: also called H2B/p2
Source text: as §1

[8] = target: T6, human recombinant histone 2B (human); assay: ELISA, Ab 0.08 ug/well
T6 construct: Non-deiminated; also called H2B
Source text: as §1

[9] = target: T1, huPAD2-deiminated human recombinant …; assay: ELISA, Ab 10 ug/well
Source text: as §1

CFC-1 [10] = target: T7, CFC-1; assay: ELISA, Ab 10 ug/well
T7 construct: Positive control for anti-citrulline reactivity; also called cfc1 XG; Cfc1-peptide
Source text: as §1

[11] = target: T2, huPAD2-deiminated human recombinant …; assay: ELISA, Ab 10 ug/well
Source text: as §1

[12] = target: T3, human recombinant histone 4; assay: ELISA, Ab 10 ug/well
Source text: as §1

[13] = target: T4, huPAD4-deiminated human recombinant …; assay: ELISA, Ab 10 ug/well
Source text: as §1

[14] = target: T8, human recombinant histone 2A (human); assay: ELISA, Ab 10 ug/well
T8 construct: Non-deiminated; also called H2A
Source text: as §1

[15] = target: T9, huPAD4-deiminated human recombinant histone 2B (human); assay: ELISA, Ab 10 ug/well
T9 construct: also called H2B/p4
Source text: as §1

[16] = target: T10, huPAD4-deiminated human recombinant histone 3 (human); assay: ELISA, Ab 10 ug/well
T10 construct: also called H3/p4
Source text: as §1

[17] = target: T5, huPAD2-deiminated human recombinant …; assay: ELISA, Ab 10 ug/well
Source text: as §1

[18] = target: T6, human recombinant histone 2B; assay: ELISA, Ab 10 ug/well
Source text: as §1

CFC-1 [19] = target: T7, CFC-1; assay: ELISA, Ab 0.000128 ug/well
Experimental: (§2) Biotin and citrulline-containing peptides derived from histone 2A were immobilized on NEUTRAVIDIN®-coated 96-well ELISA plates (0.3 μg/well). CFC-1 and CFC-0 were coated at the same concentration and served as positive and negative controls, respectively, for specific anti-citrulline reactivity and as coating controls. Non-coated wells were used to test for aspecific binding of the antibodies. […] Detection of bound anti-citrulline antibodies was performed by incubating the wells with rabbit anti-human HRP (1:2000) for 1 hour at RT followed by incubation with TMB substrate. The resulting OD (y-axis) is a measure for antibody binding.

[20] = target: T11, peptide no. 11 (human histone 2A) (human, also: biotin-labelled); assay: ELISA, Ab 0.000128 ug/well
T11 construct: also called peptide 11
T11 peptide: LQLAI[Cit]NDEELN
Experimental: as §2

[21] = target: T12, peptide no. 2 (human histone 2A) (human, also: biotin-labelled); assay: ELISA, Ab 0.000128 ug/well
T12 construct: also called peptide 2
T12 peptide: AKAKS[Cit]SSRAGL
Experimental: as §2

[22] = target: T13, peptide no. 10 (human histone 2A) (human, also: biotin-labelled); assay: ELISA, Ab 0.000128 ug/well
T13 construct: also called peptide 10
T13 peptide: TRIIP[Cit]HLQLAI
Experimental: as §2

[23] = target: T14, peptide no. 1 (human histone 2A) (human, also: biotin-labelled); assay: ELISA, Ab 0.000128 ug/well
T14 construct: also called peptide 1; AAASGXGKQGGK
T14 peptide: AAASG[Cit]GKQGGK
Experimental: as §2

[24] = target: T15, peptide no. 5 (human histone 2A) (human, also: biotin-labelled); assay: ELISA, Ab 0.000128 ug/well
T15 construct: also called peptide 5
T15 peptide: VGRVH[Cit]LLRKGN
Experimental: as §2

[25] = target: T16, peptide no. 6 (human histone 2A) (human, also: biotin-labelled); assay: ELISA, Ab 0.000128 ug/well
T16 construct: also called peptide 6
T16 peptide: VHRLL[Cit]KGNYSE
Experimental: as §2

[26] = target: T17, peptide no. 3 (human histone 2A) (human, also: biotin-labelled); assay: ELISA, Ab 0.000128 ug/well
T17 construct: also called peptide 3
T17 peptide: KSRSS[Cit]AGLQFP
Experimental: as §2

[27] = target: T18, peptide no. 8 (human histone 2A) (human, also: biotin-labelled); assay: ELISA, Ab 0.000128 ug/well
T18 construct: also called peptide 8
T18 peptide: AGNAA[Cit]DNKKTR
Experimental: as §2

[28] = target: T19, peptide no. 9 (human histone 2A) (human, also: biotin-labelled); assay: ELISA, Ab 0.000128 ug/well
T19 construct: also called peptide 9
T19 peptide: DNKKT[Cit]IIPRHL
Experimental: as §2

B1: RhmAb2.102 (antibody, human IgG1, lambda)
heavy: not shown
light: QSVLTQPPSMSAAPGQKVTISCSGSSSNIGNNYVSWYQQVPGTAPKLLIYDDNKRPSGIPGRFSGSKSATSATLGITGLQAGDEADYYCGSWDDNLSVVLFGGGTKLTVLGQPKAAPSVTLFPPSSEELQANKATLVCLISDFYPGAVTVAWKADSSPVKAGVETTTPSKQSNNKYAASSYLSLTPEQWKSHRSYSCQVTHEGSTVEKTVAPTECS
notes: Human IgG1 lambda; also called Rhm2.102
[1]
  Ratio 102/101 (emPAI): 0.5 ratio
[2]
  Ratio 102/101 (emPAI): 1 ratio
[3]
  OD: 1.96 OD450
[4]
  OD: 0.493 OD450
[5]
  OD: 0.067 OD450
[6]
  OD: 1.75 OD450
[7]
  OD: 0.053 OD450
[8]
  OD: 0.054 OD450
[9]
  OD: 3.41 OD450
CFC-1 [10]
  OD: 3.48 OD450
[11]
  OD: 2.44 OD450
[12]
  OD: 0.825 OD450
[13]
  OD: 3.42 OD450
[14]
  OD: 0.428 OD450
[15]
  OD: 0.229 OD450
[16]
  OD: 1.31 OD450
[17]
  OD: 0.31 OD450
[18]
  OD: 0.247 OD450
CFC-1 [19]
  OD: 0.749 OD450
[20]
  OD: 0.059 OD450
[21]
  OD: 0.075 OD450
[22]
  OD: 0.057 OD450
[23]
  OD: 0.128 OD450
[24]
  OD: 0.059 OD450
[25]
  OD: 0.054 OD450
[26]
  OD: 0.063 OD450
[27]
  OD: 0.055 OD450
[28]
  OD: 0.055 OD450
